In patent US10640563B2, “Anti-B7-H3 antibodies and antibody drug conjugates” (AbbVie Inc., priority 2016, dated 2020):
Positions count from the first letter of the chain named.

T1: B7-H3 (Homo sapiens, UniProt Q5ZPR3)
T1 construct: His tag (6xHis) (C); made in house
T1 sequence (Q5ZPR3 with tags, fused parts or gaps): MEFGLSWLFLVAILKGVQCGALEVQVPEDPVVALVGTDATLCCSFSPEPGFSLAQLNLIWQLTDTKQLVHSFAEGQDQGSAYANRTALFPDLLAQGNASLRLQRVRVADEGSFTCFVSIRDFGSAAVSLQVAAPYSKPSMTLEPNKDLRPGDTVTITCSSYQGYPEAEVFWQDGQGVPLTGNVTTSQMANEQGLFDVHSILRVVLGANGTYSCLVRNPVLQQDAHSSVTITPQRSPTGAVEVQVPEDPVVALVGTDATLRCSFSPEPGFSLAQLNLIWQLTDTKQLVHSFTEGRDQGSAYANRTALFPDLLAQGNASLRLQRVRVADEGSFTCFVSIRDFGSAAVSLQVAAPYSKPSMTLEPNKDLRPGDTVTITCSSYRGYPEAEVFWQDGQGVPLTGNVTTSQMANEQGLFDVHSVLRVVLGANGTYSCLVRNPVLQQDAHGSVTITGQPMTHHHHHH

T2: soluble ECD of human B7-H3 (Homo sapiens, UniProt Q5ZPR3)
T2 construct: His tag (6xHis) (C); made in house
T2 sequence (Q5ZPR3 with tags, fused parts or gaps): T1 sequence (Q5ZPR3 with tags, fused parts or gaps)

B1: huAb3v2-CZ (conjugate)
VH: EVQLVQSGAEVKKPGSSVKVSCKASGYTFSSYWMHWVRQAPGQGLEWIGLIHPDSGSTNYNEMFKNRATLTVDRSTSTAYMELSSLRSEDTAVYYCAGGGRLYFDYWGQGTTVTVSS
VL: DIVMTQSPLSLPVTPGEPASISCRSSQSLVHSNGDTYLRWYLQKPGQSPQLLIYKVSNRFSGVPDRFSGSGSGTDFTLKISRVEAEDVGVYYCSQSTHVPYTFGGGTKVEIK
B2: huAb3v2.2-CZ (conjugate)
VH: B1 VH with D54W
VL: B1 VL with G34R
B3: huAb3v2.8-CZ (conjugate)
VH: B1 VH with D54I
VL: B1 VL with G34R
B4: huAb3v2.3-CZ (conjugate)
VH: B1 VH with D54W
VL: B1 VL with G34Q
B5: Ab5: murine anti-B7-H3 mAb (mouse hybridoma derived) (antibody, V domains shown)
VH: QVQLQQPGDELVKPGASVKLSCKTSGYTFTTDWMHWVKQRPGQGLEWIGMIHPNSGTTNYNEKFKSKAALTVDKSSSTACMQLSSLTSEDSAVYYCARSYWKWYFDVWGTGTTVTVSS
VL: QIVLTQSPAIMSASLGEEITLTCSASSSVSYMHWYQQKSGTSPKLLIYSTSNLASGVPSRFSGSGSGTFYSLTISSVEAEDSADYYCHQWTSYMYTFGGGTKLEIK
B6: Ab8: murine anti-B7-H3 mAb (mouse hybridoma derived) (antibody, V domains shown)
VH: EVKLVESGGGLVKPGGSLKLSCAASGFTFSSYGMSWVRQTPEKRLEWVATISGGGNYTYCPDSVKGRFTISRDNAKNNLYLQMSSLRSEDTALYYCTRQRGYDYHYAMDFWGQGTSVTVSS
VL: DIQMTQSPASLSVSVGETVTITCRASENIYSNLAWHQQKQGKSPQLLVYAATNLADGVPSRFSGNGSDTQYSLKINSLQSEDFGSYFCQNFWGTSWTFGGGTKLEIK
B7: Ab12: murine anti-B7-H3 mAb (mouse hybridoma derived) (antibody, V domains shown)
VH: EVQLVESGGGLVKPGGSLKLSCAASGFTFSSYAMSWVRQTPEKRLEWVATISSGTNYTYYPDSVKGRFTISRDNAKNTLYLQMTSLRSEDTAMYYCARQGRYSWIAYWGQGTLVTVSA
VL: DIVLTQSPASLAVSLGQRATISCRASKSVSTSDYSYMHWNQQKPGQPPKLLIYLASNLESGVPARFSGSGSGTDFTLNIHPVEEEDAATYYCQHSRELLTFGAGTKLELK
B8: Ab11: murine anti-B7-H3 mAb (mouse hybridoma derived) (antibody, V domains shown)
VH: EVKLVESGGGLVQPGGSLRLSCATSGFTFTNYYMSWVRQPPGKALEWLGFIRNKANDYTTEYSASVKGRFTISRDNSQSILYLQMNTLRAEDSATYYCARESPGNPFAYWGQGTLVTVSA
VL: DIVMTQSPSSLTVTAGEKVTMTCKSSQSLLNSGTQKNFLTWYQQKPGQPPKLLIYWASTRESGVPDRFTGSGSGTDFTLTISSVQAEDLAVYFCQNDYIYPLTFGAGTKLELK
B9: Ab4: murine anti-B7-H3 mAb (mouse hybridoma derived) (antibody, V domains shown)
VH: QVQLQQPGAELVKPGASVKLSCKASGYSFTSYWMHWVKQRPGQGLEWIGMIHPNSGSNNYNEKFKSKATLTVDKSSNTAYMQLSSLTSEDSAVYYCARRLGLHFDYWGQGTTLTVSS
VL: DIVMTQSQKFMSTPVGDRVSITCKASQNVGTAVAWYQQKPGQSPKLLIYSASNRYTGVPDRFTGSGSGTDFTLTISNMQSEDLADYFCQQYSSYPYTFGGGTKLEIK
B10: Ab3: murine anti-B7-H3 mAb (mouse hybridoma derived) (antibody, V domains shown)
VH: QVQLQQPGAELVKPGASVKLSCKASGYTFSSYWMHWVKQRPGQGLEWIGLIHPDSGSTNYNEMFKNKATLTVDRSSSTAYVQLSSLTSEDSAVYFCAGGGRLYFDYWGQGTTLTVSS
VL: DVVMTQTPLSLPVSLGDQASISCRSSQSLVHSNGDTYLRWYLQKPGQSPKLLIYKVSNRFSGVPDRFSGSGSGTDFTLKITRVEAEDLGVYFCSQSTHVPYTFGGGTKLEIK

Tested on: HCC38 cell line
Assay: Cell cytotoxicity of ADCs in HCC38 cell line
Assay type: cell-based
Conditions: Table 14; CZ conjugates
How it was run: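 Humanized anti-B7-H3 antibody (chAb18) variants conjugated to the Bcl-xL inhibitor synthon CZ and tested as ADCs for cytotoxicity in HCC38 cells.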

Row | Molecule | IC50 [nM]
1 | B1 | 0.13

Tested on: NCI-H146 cells
Assay: In vivo xenograft model of small cell lung cancer (NCI-H146)
Parameters: species or system mice
Conditions: Table 15; 6 mg/kg/IP/QDx1

Row | Molecule | TGD (%) | TGImax (%)
2 | B1 | 52 | 83

Biological target: T1, B7-H3
Assay: Affinity of naked mAbs by SPR (Biacore)
Assay type: binding
Conditions: Table 17
Method: The parental chAb18 from which the variants were derived was also tested as a comparator.

Row | Molecule | Affinity of naked mAbs (Biacore, KD)
3 | B2 | Poor fit
4 | B3 | Poor fit
5 | B4 | Poor fit

Tested on: not listed separately
Assay: Aggregation of conjugates by SEC
Assay type: physicochemical
Conditions: Table 14; CZ conjugates of Ab3 variants

Row | Molecule | % agg by SEC [%]
6 | B1 | 10.1

Same assay, conditions: Table 17; CZ conjugates of huAb3v2 variants

Row | Molecule | % agg by SEC [%]
7 | B2 | 1.8
8 | B3 | 5.7
9 | B4 | 1.5

Biological target: T1, B7-H3
Assay: Pair-wise SPR binding assay for epitope grouping
Conditions: simultaneous binding assay, 12° C.
Source text: Pair-wise binding assays performed on Biacore T200 SPR instruments were used to determine the relative epitope grouping for the murine anti-B7-H3 mAbs as described in the methods below. […] Epitope groups are represented as individual ovals, some of which overlap with each other. Antibodies in different epitope groups can bind to B7-H3 simultaneously and likely bind to different epitopes while antibodies within a given epitope group cannot bind to B7-H3 simultaneously and likely bind to overlapping epitopes. The grouping information was derived from a simultaneous binding assay as described in materials and methods. Ab3, Ab4, Ab5, Abl 1, Ab12, and Ab8 groupings were ambiguous.
Pair-wise binding assays performed on Biacore T200 SPR instruments were used to determine the relative epitope grouping for a series of anti-B7-H3 mAbs. The assay format was Fc-based capture via immobilized anti-mouse(Fc) (Pierce 31170) or immobilized anti-human (Fc) (Pierce 31125). A standard amine coupling protocol was employed to immobilize the capture reagents via primary amines to the carboxy-methyl (CM) dextran surface of CM5 sensorchips (Biacore); capture antibodies were coupled to a level of approximately 2000 RU. Epitope grouping measurements were done at 12° C. (low temperature allows for grouping information on fast off-rate mAbs), the assay buffer was HBS-EP+(Biacore): 10 mM Hepes, pH7.4, 150 mM NaCl, 3 mM EDTA, 0.05% polysorbate 20. Each assay cycle consisted of the following steps in a four flowcell system: 1) separate test mAbs were captured in flowcells 2, 3 & 4 (flowcell 1 was reference, no test mAb); 2) all 4 flowcells were then blocked by injection with isotype control mAb or isotype mAb cocktail at 50 μg/mL; 3) all 4 flowcells were then injected with antigen or buffer only (buffer only is for double referencing, done for each mAb pair individually); 4) all 4 flowcells were then injected with 2nd test mAb at 10 μg/mL; 5) all 4 flowcells were then regenerated with glycine, pH1.5. The assay was done for each test mAb pair in reciprocal orientations. Simultaneous binding was evaluated examining the ratio of the 2nd test mAb response to the Ag response (RUmAb2/RUAg); if this ratio was equal to or greater than 0.2 the interaction was scored as a simultaneous binder. From this pair-wise binding assay data a “venn” style diagram was constructed manually to depict relative epitope groupings.

Row | Molecule | relative human B7-H3 epitope grouping
10 | B5 | ambiguous
11 | B6 | ambiguous
12 | B7 | ambiguous
13 | B8 | ambiguous
14 | B9 | ambiguous
15 | B10 | ambiguous

Tested on: soluble ECD of cyno B7-H3
Sequence (as listed by the source): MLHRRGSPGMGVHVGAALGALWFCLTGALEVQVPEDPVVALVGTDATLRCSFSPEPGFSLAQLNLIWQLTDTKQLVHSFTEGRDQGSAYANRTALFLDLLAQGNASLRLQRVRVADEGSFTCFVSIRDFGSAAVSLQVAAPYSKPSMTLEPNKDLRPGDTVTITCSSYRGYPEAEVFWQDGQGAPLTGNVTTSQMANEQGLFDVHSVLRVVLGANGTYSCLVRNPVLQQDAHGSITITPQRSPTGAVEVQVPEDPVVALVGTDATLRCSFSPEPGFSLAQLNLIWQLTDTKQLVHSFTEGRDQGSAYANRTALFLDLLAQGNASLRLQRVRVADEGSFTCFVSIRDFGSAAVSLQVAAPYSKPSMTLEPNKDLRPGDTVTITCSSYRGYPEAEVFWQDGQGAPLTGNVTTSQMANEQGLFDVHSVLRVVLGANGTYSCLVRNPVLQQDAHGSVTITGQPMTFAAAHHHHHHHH
Assay: Biacore T200 SPR binding kinetics, mAb capture
Parameters: species or system cynomolgus monkey
Conditions: Biacore T200, Fc capture of mAb, B7-H3 ECD as analyte, 1:1 binding model

Row | Molecule | cynoB7-H3 ka [M⁻¹ s⁻¹] | cynoB7-H3 kd [s⁻¹]
16 | B5 | 1.4e+06 | 0.28
17 | B6 | 160000 | 0.00026
18 | B7 | 55000 | 1e-05
19 | B8 | 27000 | 7.2e-05
20 | B9 | 540000 | 0.00096
21 | B10 | 380000 | 0.01

Tested on: H847 cells
Assay: Cell cytotoxicity of ADCs in H847 cells
Assay type: cell-based
Conditions: Table 17; CZ conjugates; read-out: Cytotoxicity (H847 Cell line IC50)
Source text: These new anti-B7-H3 antibodies were further characterized for binding by SPR and conjugated to the Bcl-xLi synthon CZ and assessed for cell cytotoxicity (using the methods described in Example 7).

Row | Molecule | IC50 [nM]
22 | B1 | 1.49
23 | B2 | 26.7
24 | B3 | 2.36

Biological target: T2, soluble ECD of human B7-H3
Assay: Biacore T200 SPR binding kinetics, mAb capture
Conditions: Biacore T200, Fc capture of mAb, B7-H3 ECD as analyte, 1:1 binding model
Method: The binding affinity of the purified anti-B7-H3 monoclonal antibodies was determined by surface […]. […] The binding kinetics were derived from SPR measurements using a Biacore T200 instrument and a mAb capture approach (as described in the materials and methods below).
Biacore T200 SPR instruments were used to measure the binding kinetics of human B7-H3 (analyte) binding to various mAbs (ligands). The assay format was Fc-based capture via immobilized anti-mouse (Fc) (Pierce 31170) or immobilized anti-human (Fc) (Pierce 31125). A standard amine coupling protocol was employed to immobilize the capture reagents via primary amines to the carboxy-methyl (CM) dextran surface of CM5 sensorchips (Biacore); capture antibodies were coupled to a level of approximately 5000 RU. For binding kinetic measurements the assay buffer was HBS-EP+ (Biacore): 10 mM Hepes, pH7.4, 150 mM NaCl, 3 mM EDTA, 0.05% polysorbate 20. During the assay, all measurements were referenced against the capture surface alone. Each assay cycle consisted of the following steps: 1) Capture of ligand to approximately 50 RU; 2) Analyte injection over both reference and test surface, 240 μL at 80 μL/min, after which the dissociation was monitored for 900 seconds at 80 μL/min; 3) Regeneration of capture surface with low pH glycine. For kinetic determinations analyte injections were 3-point, 9-fold dilution series of 900 nM, 100 nM and 11.11 nM, buffer only injections were included for secondary referencing. Data were processed and fit to a 1:1 binding model using Biacore T200 Evaluation Software to determine the binding kinetic rate constants, ka (on-rate) and kd (off-rate), and the equilibrium dissociation constant (affinity, KD).

Row | Molecule | huB7-H3 ka [M⁻¹ s⁻¹] | huB7-H3 kd [s⁻¹]
25 | B5 | 1.3e+06 | 0.012
26 | B6 | 58000 | 9.9e-05
27 | B7 | 38000 | 0.00025
28 | B8 | 20000 | 0.00089
29 | B9 | 690000 | 0.0011
30 | B10 | 520000 | 0.01
